Five molecules from PMC3737525, “Structural and mechanistic basis of anti-termination of Rho-dependent transcription termination by bacteriophage P4 capsid protein Psu” (Nucleic Acids Research, 2013) can be followed below.

The target of data set [1] is T1, C-terminal, HMK-tagged P167L Rho, 32P-labelled (UniProt P0AG30 1-419, P167L, radiolabelled with [γ-32P]ATP in the HMK tag using protein kinase A).
T1 construct: Transcription termination factor Rho; also called P^32-labelled HMK-tagged P167L Rho; end-labelled Rho; not shown: HMK (heart muscle protein kinase) tag, C-terminal, kept
T1 sequence (P0AG30 whole entry P167L): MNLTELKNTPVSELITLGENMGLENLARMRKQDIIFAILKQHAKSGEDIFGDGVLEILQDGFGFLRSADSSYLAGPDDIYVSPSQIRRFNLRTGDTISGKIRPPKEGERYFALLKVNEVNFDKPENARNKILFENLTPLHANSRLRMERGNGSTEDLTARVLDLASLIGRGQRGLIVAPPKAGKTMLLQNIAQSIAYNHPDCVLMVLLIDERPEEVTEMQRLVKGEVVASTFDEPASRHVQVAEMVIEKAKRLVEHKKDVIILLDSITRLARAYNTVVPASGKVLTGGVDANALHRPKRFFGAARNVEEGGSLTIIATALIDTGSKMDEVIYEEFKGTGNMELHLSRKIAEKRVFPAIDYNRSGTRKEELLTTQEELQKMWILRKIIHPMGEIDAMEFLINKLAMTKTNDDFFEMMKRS
Nature of the data set: Fe-BABE hydroxyl-radical protein cleavage; 0.2 µM 32P-labelled HMK-tagged P167L Rho and 2.5 µM Fe-BABE-labelled Psu, 37°C 30 min, 50 mM MOPS, 120 mM NaCl, 0.1 mM EDTA, 10 mM MgCl2, 10% glycerol, pH 8.0, 1 mM ATP; cleavage started with 4 mM ascorbate and hydrogen peroxide; SDS-PAGE autoradiogram. Particulars: both partners purified.

For data set [2], the target named is T1, C-terminal, HMK-tagged P167L Rho, …. Nature of the data set: limited trypsin digestion (protein foot-printing); 0.2 µM 32P-labelled HMK-tagged P167L Rho with 2.5 µM WT Psu in transcription buffer with 1 mM ATP, 10 min 37°C, then increasing trypsin for 1 min; gradient SDS-PAGE autoradiogram. Particulars: both partners purified.
For data set [3], the target named is T2, Single Cys derivative S346C of P167L Rho (UniProt P0AG30 1-419, P167L | C202S | S346C).
T2 construct: Transcription termination factor Rho; natural cysteine removed, made on P167L Rho; also called S346C Rho
T2 sequence (P0AG30 whole entry P167L/C202S/S346C): as the sequence (P0AG30 whole entry P167L) above, with C202S, S346C counted along it
Kind of data set: cross-linking; sulpho-LC-SPDP (cysteine to amine): SPDP-derivatized 32P-labelled Psu (~0.5 µM) with single-Cys Rho derivatives (~2 µM), 10 min 25°C, phosphate buffer (100 mM NaH2PO4, 150 mM NaCl, 1 mM EDTA, pH 7.5); non-reducing 12% PAGE; species sensitive to DTT. Particulars: both partners purified.

Data set [4] deals with the molecule itself. The description is as above.
Data set [5] concerns the target T3, Single Cys derivative S153C of P167L Rho (UniProt P0AG30 1-419, P167L | C202S | S153C).
T3 construct: Transcription termination factor Rho; natural cysteine removed, made on P167L Rho; also called S153C Rho
The data set is described as above. Particulars: both partners purified.

In data set [6] the target is T4, TMRA-labelled S346C Rho (on P167L Rho) (UniProt P0AG30 1-419, P167L | C202S | S346C, tetramethylrhodamine-5-maleimide (TMRA) on the single cysteine at 346).
T4 construct: Transcription termination factor Rho; natural cysteine removed, made on P167L Rho; also called TMRA–Rho S346C; source: labelled with tetramethylrhodamine-5-maleimide, excess dye removed
T4 sequence (P0AG30 whole entry P167L/C202S/S346C): as the sequence (P0AG30 whole entry P167L) above, with C202S, S346C counted along it
Kind of data set: FRET or BRET; fluorescein-labelled Psu (50 nM) and TMRA-labelled Rho (100 nM), 25 mM Tris-HCl pH 8.0, 50 mM KCl, 5 mM MgCl2, 25°C, 15 min; excitation 470 nm, emission enhancement at 570 nm. The following applies: both partners purified. On the technique in general: Bioluminescence resonance energy transfer reports proximity on the nanometre scale.

In data set [7] the target is T5, TMRA-labelled S153C Rho (on P167L Rho) (UniProt P0AG30 1-419, P167L | C202S | S153C, tetramethylrhodamine-5-maleimide (TMRA) on the single cysteine at 153).
T5 construct: Transcription termination factor Rho; natural cysteine removed, made on P167L Rho; also called TMRA–Rho S153C; source: labelled with tetramethylrhodamine-5-maleimide, excess dye removed
T5 sequence (P0AG30 whole entry S153C/P167L/C202S): as the sequence (P0AG30 whole entry P167L) above, with S153C, C202S counted along it
The description is as above. The following applies: both partners purified.

T3 sequence (P0AG30 whole entry S153C/P167L/C202S): as the sequence (P0AG30 whole entry P167L) above, with S153C, C202S counted along it

B1: Fe-BABE-conjugated Psu S181C (natural protein, bacteriophage P4)
chain: MESTALQQAFDTSQNNKAAWLQRKNELAAAEQEYLRLLSGEGRNVSRLDELRNIIEVRKWQVNQAAGRYIRSHEAVQHISIRDRLNDFMQQHGTALAAALAPELMGYSELTAIARNSAIQRATDALREALLSWLAKGEKINYSAQDSDILTTIGFRPDVASVDDSREKFTPAQNMIFSRKCAQLASRQSV
modifications: Fe-BABE conjugated to the single cysteine at 181
notes: Psu (polarity suppressor), capsid-decoration protein of bacteriophage P4; natural cysteines removed; also called Fe-BABE-labelled Psu; source: conjugated with 5-fold molar excess of Fe-BABE (Pierce), desalted
As for B1, the binding result in data set [1] is on record as “binds”.

B2: WT Psu (in vitro assays) (natural protein, bacteriophage P4)
chain: MESTALQQAFDTCQNNKAAWLQRKNELAAAEQEYLRLLSGEGRNVSRLDELRNIIEVRKWQVNQAAGRYIRSHEAVQHISIRDRLNDFMQQHGTALAAALAPELMGYSELTAIARNCAIQRATDALREALLSWLAKGEKINYSAQDSDILTTIGFRPDVASVDDSREKFTPAQNMIFSRKSAQLASRQSV
notes: Psu (polarity suppressor), 21 kDa capsid-decoration protein of bacteriophage P4; purification may stand in the Supplementary Methods
With B2, the binding result in data set [2] is recorded as “binds”.

B3: SPDP-derivatized, HMK-tagged non-cysteine derivative of Psu (C13S and C117S) (natural protein, bacteriophage P4)
chain: MESTALQQAFDTSQNNKAAWLQRKNELAAAEQEYLRLLSGEGRNVSRLDELRNIIEVRKWQVNQAAGRYIRSHEAVQHISIRDRLNDFMQQHGTALAAALAPELMGYSELTAIARNSAIQRATDALREALLSWLAKGEKINYSAQDSDILTTIGFRPDVASVDDSREKFTPAQNMIFSRKSAQLASRQSV
modifications: 32P end-label in the HMK tag; primary amines (lysines) labelled with sulpho-LC-SPDP
notes: Psu (polarity suppressor), capsid-decoration protein of bacteriophage P4; natural cysteines removed; also called SPDP-labelled Psu; radiolabelled Psu; source: labelled with sulpho-LC-SPDP (Pierce), desalted
Broadly, the stoichiometry N is the number of molecules, sites or subunits per partner or assembly. On to B3, for which the binding result in data set [3] and in data set [5] was “binds” each time. Also, the “stoichiometry N” value in data set [4] stood at 2.

B4: Fluorescein-labelled Psu S181C (natural protein, bacteriophage P4)
chain: MESTALQQAFDTSQNNKAAWLQRKNELAAAEQEYLRLLSGEGRNVSRLDELRNIIEVRKWQVNQAAGRYIRSHEAVQHISIRDRLNDFMQQHGTALAAALAPELMGYSELTAIARNSAIQRATDALREALLSWLAKGEKINYSAQDSDILTTIGFRPDVASVDDSREKFTPAQNMIFSRKCAQLASRQSV
modifications: fluorescein-5-maleimide on the single cysteine at 181
notes: Psu (polarity suppressor), capsid-decoration protein of bacteriophage P4; natural cysteines removed; also called FL-labelled S181C Psu; source: labelled with fluorescein-5-maleimide, excess dye removed
In the case of B4, the binding result in data set [6] and in data set [7] was “binds” each time.

B5: Fluorescein-labelled Psu S161C (natural protein, bacteriophage P4)
chain: MESTALQQAFDTSQNNKAAWLQRKNELAAAEQEYLRLLSGEGRNVSRLDELRNIIEVRKWQVNQAAGRYIRSHEAVQHISIRDRLNDFMQQHGTALAAALAPELMGYSELTAIARNSAIQRATDALREALLSWLAKGEKINYSAQDSDILTTIGFRPDVACVDDSREKFTPAQNMIFSRKSAQLASRQSV
modifications: fluorescein-5-maleimide on the single cysteine at 161
notes: Psu (polarity suppressor), capsid-decoration protein of bacteriophage P4; natural cysteines removed; also called FL-labelled S161C Psu; source: labelled with fluorescein-5-maleimide, excess dye removed
Turning to B5, the binding result in data set [6] and in data set [7] was “binds” throughout.
